The text below walks through data of the supplement of paper PMC6757056.

± gives the standard deviation of the averaged measurements.

Sequences and labels used below:
B1: library; a variant is named by its letters at N, in order (parent)
chain: GCUGUCACCGGUGUAUUACCCUAGUGGUCGACCGGUCUGAUGAGUCUNNNNNNAGACGAAACAGC

Variants of B1 are the subject of data set [1]. The data set is described as follows: normalized RNA/DNA level with ligand (relative to sTRSVctl = 100) (log10 (% of sTRSVctl)); ligand: hypoxanthine (xanthine aptamer); higher = less ribozyme self-cleavage, higher mRNA level. As to conditions: ligand concentration (+) RNA-Seq: 5 mM, HEK293T, reporter: mCherry (pCS4076), ligand present: yes. The gist of the method: (§1)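 For each 6-well well, 4 µg of library plasmid encoding mCherry-linked ribozyme switches, or eGFP-linked ones in some ligand experiments, was transfected into HEK293T. Any ligand was added 1 h before transfection, and RNA was extracted with EDTA 72 h after it, then reverse-transcribed, amplified, barcoded and sequenced. RNA level was obtained by dividing RNA reads by DNA reads, normalizing to a spiked-in non-cleaving sequence or to the top sequences, then scaling and log-transforming. The top set was 25 sequences, scaling was ×100 with log10, and ≥100 DNA reads were required.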

Data set [2] covers variants of B1. The data set is described as follows: normalized RNA/DNA level without ligand (relative to sTRSVctl = 100) (log10 (% of sTRSVctl)); ligand: hypoxanthine (xanthine aptamer); higher = less ribozyme self-cleavage, higher mRNA level. Particulars: HEK293T, reporter: mCherry (pCS4076), ligand present: no. The gist of the method: as §1

For GCUGUCACCGGUGUAUUACCCUAGUGGUCGACCGGUCUGAUGAGUCUCUAGGCAGACGAAACAGC [CUAGGC], the “normalized RNA/DNA level with ligand (log10)” value in data set [1] is 1.94 ± 0.029. For the same variant, in data set [2], the “normalized RNA/DNA level without ligand (log10)” value was 1.86 ± 0.086.
GCUGUCACCGGUGUAUUACCCUAGUGGUCGACCGGUCUGAUGAGUCUCUAGGUAGACGAAACAGC [CUAGGU]: in data set [1], the “normalized RNA/DNA level with ligand (log10)” value was 1.94 ± 0.028. In addition, in data set [2], the “normalized RNA/DNA level without ligand (log10)” value amounted to 1.88 ± 0.026.
Take GCUGUCACCGGUGUAUUACCCUAGUGGUCGACCGGUCUGAUGAGUCUCUAUCGAGACGAAACAGC [CUAUCG]: the “normalized RNA/DNA level with ligand (log10)” value in data set [1] was determined as 1.956 ± 0.016. Further, the “normalized RNA/DNA level without ligand (log10)” value in data set [2] amounted to 1.94 ± 0.033.
In the case of GCUGUCACCGGUGUAUUACCCUAGUGGUCGACCGGUCUGAUGAGUCUCUAUCCAGACGAAACAGC [CUAUCC], the “normalized RNA/DNA level with ligand (log10)” value in data set [1] was found to be 1.93 ± 0.062. Also, the “normalized RNA/DNA level without ligand (log10)” value in data set [2] came to 1.92 ± 0.049.
For the variant GCUGUCACCGGUGUAUUACCCUAGUGGUCGACCGGUCUGAUGAGUCUCUAUCAAGACGAAACAGC [CUAUCA], the “normalized RNA/DNA level with ligand (log10)” value in data set [1] came to 1.92 ± 0.041. In data set [2], the “normalized RNA/DNA level without ligand (log10)” value is 1.86 ± 0.029.
For the variant GCUGUCACCGGUGUAUUACCCUAGUGGUCGACCGGUCUGAUGAGUCUUUAGUUAGACGAAACAGC [UUAGUU], the “normalized RNA/DNA level with ligand (log10)” value in data set [1] was determined as 1.952 ± 0.0013. Further, in data set [2], the “normalized RNA/DNA level without ligand (log10)” value stood at 1.85 ± 0.038.
The corresponding values for GCUGUCACCGGUGUAUUACCCUAGUGGUCGACCGGUCUGAUGAGUCUUUAGUGAGACGAAACAGC [UUAGUG] are 1.89 ± 0.048 and 1.67 ± 0.043.
Taken in the same sequence, the figures for GCUGUCACCGGUGUAUUACCCUAGUGGUCGACCGGUCUGAUGAGUCUUUAGUAAGACGAAACAGC [UUAGUA] were 1.939 ± 0.017 and 1.81 ± 0.039.
As for GCUGUCACCGGUGUAUUACCCUAGUGGUCGACCGGUCUGAUGAGUCUUUAGUCAGACGAAACAGC [UUAGUC], the “normalized RNA/DNA level with ligand (log10)” value in data set [1] came to 1.98 ± 0.0064. Besides, the “normalized RNA/DNA level without ligand (log10)” value in data set [2] was 1.976 ± 0.015.
With GCUGUCACCGGUGUAUUACCCUAGUGGUCGACCGGUCUGAUGAGUCUGUAGUCAGACGAAACAGC [GUAGUC], in data set [1], the “normalized RNA/DNA level with ligand (log10)” value is 1.976 ± 0.012. In addition, the “normalized RNA/DNA level without ligand (log10)” value in data set [2] worked out at 1.81 ± 0.05.
Taken in the same sequence, the figures for GCUGUCACCGGUGUAUUACCCUAGUGGUCGACCGGUCUGAUGAGUCUGUAGUUAGACGAAACAGC [GUAGUU] were 1.96 ± 0.041 and 1.87 ± 0.046.
On to GCUGUCACCGGUGUAUUACCCUAGUGGUCGACCGGUCUGAUGAGUCUAUAUAUAGACGAAACAGC [AUAUAU], for which the “normalized RNA/DNA level with ligand (log10)” value in data set [1] is 1.9 ± 0.028. Also, in data set [2], the “normalized RNA/DNA level without ligand (log10)” value amounted to 1.79 ± 0.045.
For the variant GCUGUCACCGGUGUAUUACCCUAGUGGUCGACCGGUCUGAUGAGUCUGUAGGAAGACGAAACAGC [GUAGGA], the “normalized RNA/DNA level with ligand (log10)” value in data set [1] worked out at 1.892 ± 0.002. Moreover, in data set [2], the “normalized RNA/DNA level without ligand (log10)” value was found to be 1.66 ± 0.033.
In the case of GCUGUCACCGGUGUAUUACCCUAGUGGUCGACCGGUCUGAUGAGUCUUUAUAUAGACGAAACAGC [UUAUAU], the “normalized RNA/DNA level with ligand (log10)” value in data set [1] stood at 1.93 ± 0.027. For the same variant, the “normalized RNA/DNA level without ligand (log10)” value in data set [2] was found to be 1.85 ± 0.019.
In the case of GCUGUCACCGGUGUAUUACCCUAGUGGUCGACCGGUCUGAUGAGUCUUUAUAAAGACGAAACAGC [UUAUAA], the “normalized RNA/DNA level with ligand (log10)” value in data set [1] stood at 1.92 ± 0.0059. The “normalized RNA/DNA level without ligand (log10)” value in data set [2] came to 1.76 ± 0.041.
With GCUGUCACCGGUGUAUUACCCUAGUGGUCGACCGGUCUGAUGAGUCUUUAUAGAGACGAAACAGC [UUAUAG], in data set [1], the “normalized RNA/DNA level with ligand (log10)” value is 1.89 ± 0.019. In data set [2], the “normalized RNA/DNA level without ligand (log10)” value came out at 1.67 ± 0.04.
The corresponding values for GCUGUCACCGGUGUAUUACCCUAGUGGUCGACCGGUCUGAUGAGUCUAUAGCUAGACGAAACAGC [AUAGCU] are 1.935 ± 0.018 and 1.83 ± 0.005.
In the case of GCUGUCACCGGUGUAUUACCCUAGUGGUCGACCGGUCUGAUGAGUCUGUAGCGAGACGAAACAGC [GUAGCG], the “normalized RNA/DNA level with ligand (log10)” value in data set [1] is 1.87 ± 0.02. Besides, in data set [2], the “normalized RNA/DNA level without ligand (log10)” value is 1.535 ± 0.0049.
Taken in the same sequence, the figures for GCUGUCACCGGUGUAUUACCCUAGUGGUCGACCGGUCUGAUGAGUCUCUAGUUAGACGAAACAGC [CUAGUU] were 1.919 ± 0.0027 and 1.9151 ± 0.00062.
For the variant GCUGUCACCGGUGUAUUACCCUAGUGGUCGACCGGUCUGAUGAGUCUCUAGUAAGACGAAACAGC [CUAGUA], the “normalized RNA/DNA level with ligand (log10)” value in data set [1] was 1.918 ± 0.0099. Also, the “normalized RNA/DNA level without ligand (log10)” value in data set [2] is 1.8 ± 0.049.
The corresponding values for GCUGUCACCGGUGUAUUACCCUAGUGGUCGACCGGUCUGAUGAGUCUAUAGGUAGACGAAACAGC [AUAGGU] are 1.908 ± 0.016 and 1.587 ± 0.015.
